Measurements published in patent US20130309252A1 (UNIVERSITE DE LA MEDITERRANEE AIX MARSEILLE II, published 2013).
Where no end group is shown, it is not given here.

B1: JAM-A, endogenous mouse protein immunoprecipitated with rat mAb H202 (receptor)
chain: KGSVYTAQSDVQVPENESIKLTCTYSGFSSPRVEWKFVQGSTTALVCYNSQITAPYADRVTFSSSGITFSSVTRKDNGEYTCMVSEEGGQNYGEVSIHLTVLVPPSKPTISVPSSVTIGNRAVLTCSEHDGSPPSEYSWFKDGISMLTADAKKTRAFMNSSFTIDPKSGDLIFDPVTAFDSGEYYCQAQNGYGTAMRSEAAHMDAVELNVGGIVAAVLVTLILLGLLIFGVWFAYSRGYFETTKKGTAPGKKVIYSQPSTRSEGEFKQTSSFLV
notes: also called junctional adhesion molecule A
B2: JAM-B, endogenous mouse protein immunoprecipitated with rat mAb JB4 (receptor)
chain: FSASKDHRQEVTVIEFQEAILACKTPKKTTSSRLEWKKVGQGVSLVYYQQALQGDFKDRAEMIDFNIRIKNVTRSDAGEYRCEVSAPTEQGQNLQEDKVMLEVLVAPAVPACEVPTSVMTGSVVELRCQDKEGNPAPEYIWFKDGTSLLGNPKGGTHNNSSYTMNTKSGILQFNMISKMDSGEYYCEARNSVGHRRCPGKRMQVDVLNISGIIATVVVVAFVISVCGLGTCYAQRKGYFSKETSFQKGSPASKVTTMSENDFKHTKSFII
notes: also called junctional adhesion molecule B
B3: JAM-C, endogenous mouse protein immunoprecipitated with rat mAb 19H36 (receptor)
chain: EAVNLKSSNRNPVVHEFESVELSCIITDSQTSDPRIEWKKIQDGQTTYVYFDNKIQGDLAGRTDVFGKTSLRIWNVTRSDSAIYRCEVVALNDRKEVDEITIELIVQVKPVTPVCRIPAAVPVGKTATLQCQESEGYPRPHYSWYRNDVPLPTDSRANPRFQNSSFHVNSETGTLVFNAVHKDDSGQYYCIASNDAGAARCEGQDMEVYDLNIAGIIGGVLVVLIVLAVITMGICCAYRRGCFISSKQDGESYKSPGKHDGVNYIRTSEEGDFRHKSSFVI
notes: also called junctional adhesion molecule C
B4: biotinylated peptide corresponding to the last 19 amino-acids of JAM-C (peptide)
peptide: NYIRTSEEGDFRHKSSFVI
modifications: also: biotinylated (position not given here)
notes: also called JAM-C peptide; biotinylated JAM-C
B5: ADAM17 C-terminal sequence, yeast two-hybrid construct (other)
chain: CVDKKLDKQYESLSLFHHSNIEMLSSMDSASVRIIKPFPAPQTPGRLQALQPAAMMPPVSAAPKLDHQRMDTIQEDPSTDSHVDDDGFEKDPFPNSSTAAKSFEDLTDHPVTRSEKAASFKLQRQSRVDSKETEC
notes: not shown: Gal4 domain of the two-hybrid vector
B6: JAM-B ΔPDZbm, yeast two-hybrid construct lacking the last three amino-acids (other)
chain: TCYAQRKGYFSKETSFQKGSPASKVTTMSENDFKHTKS
notes: End at 295 worked out from 'deletion of the last three amino-acids' of 258-298; not shown: Gal4 domain of the two-hybrid vector
B7: JAM-B cytoplasmic C-terminal construct, yeast two-hybrid (other)
chain: TCYAQRKGYFSKETSFQKGSPASKVTTMSENDFKHTKSFII
notes: as for B5
B8: JAM-A ΔPDZbm, yeast two-hybrid construct lacking the last three amino-acids (other)
chain: AYSRGYFETTKKGTAPGKKVIYSQPSTRSEGEFKQTS
notes: End at 296 worked out from 'deletion of the last three amino-acids' of 260-299; not shown: Gal4 domain of the two-hybrid vector
B9: JAM-C ΔPDZbm, yeast two-hybrid construct lacking the last three amino-acids (other)
chain: ICCAYRRGCFISSKQDGESYKSPGKHDGVNYIRTSEEGDFRHKSS
notes: End at 307 worked out from 'deletion of the last three amino-acids' of 263-310; not shown: Gal4 domain of the two-hybrid vector
B10: JAM-C cytoplasmic C-terminal construct, yeast two-hybrid (other)
chain: ICCAYRRGCFISSKQDGESYKSPGKHDGVNYIRTSEEGDFRHKSSFVI
notes: also called JAM-C C-terminal region; not shown: Gal4 domain of the two-hybrid vector
B11: ADAM10 C-terminal sequence, yeast two-hybrid construct (other)
chain: FIKICSVHTPSSNPKLPPPKPLPGTLKRRRPPQPIQQPPRQRPREYQMGHMRR
notes: as for B5

Each binder was assayed against T1, Grasp55 (Golgi reassembly-stacking protein of 55 kDa), endogenous mouse protein in cell lysates (murine, UniProt Q99JX3 2-451, limits assumed) (assay: co-immunoprecipitation, anti-GRASP55 blot).
T1 construct: Endogenous protein detected by mass spectrometry or anti-GRASP55 blot
Method: (§1) Total cell lysates were used as controls. Proteins were then resolved on SDS-PAGE and blotted with anti-GRASP55 antibody. Arrows indicate the signal corresponding to Grasp55.
Protein concentration of the samples was determined according to the Bradford method.

| binding result | Binder |
| --- | --- |
| binds | B1 |
| binds | B2 |
| binds | B3 |

These binders were tested against T2, GST-PDZI′+II′ recombinant Grasp55 protein (murine) (assay: HTRF).
T2 construct: also called Grasp-GST-PDZI′+II′
Method: (§2) In some experiments, competing peptide or chemicals were added to the incubation mix at the indicated concentration. After incubation, microtiter plates (Costar #3693) were red using PolarScan Omega (BMG Labtech) equipped for HTRF measurements. Upon excitation at 320 nm, a 620 nm fluorescence emission is produced by the donor terbium that in turn excites a 665 nm light emission by a Streptavidin-d2 (acceptor) bound to the Biotinylated interacting Peptide if the latter is interacting with the donor. The […] R ratio is obtained and a Delta F is computed as: [(Rₛₐₘₚₗₑ−RNSB)/RNSB]*100 where RNSB is the Non Specific Background signal determined in incubates where the GST-fusion protein was omitted.

| binding result | Binder |
| --- | --- |
| no binding (tested: 1.9*10^-7M peptide) | NYIRTSEEGDFRHKSS (also: biotinylated (position not given here), also called JAM-CΔ) [biotinylated JAM-C control peptide ΔPDZbm, lacking the last three amino-acids] |

Each binder was assayed against T3, GST-PDZI′ recombinant Grasp55 protein (murine) (assay: HTRF).
T3 construct: also called Grasp-GST-PDZI′; PDZI′-GST-construct
Method: as §2

T3 sequence (chain, as listed by the source): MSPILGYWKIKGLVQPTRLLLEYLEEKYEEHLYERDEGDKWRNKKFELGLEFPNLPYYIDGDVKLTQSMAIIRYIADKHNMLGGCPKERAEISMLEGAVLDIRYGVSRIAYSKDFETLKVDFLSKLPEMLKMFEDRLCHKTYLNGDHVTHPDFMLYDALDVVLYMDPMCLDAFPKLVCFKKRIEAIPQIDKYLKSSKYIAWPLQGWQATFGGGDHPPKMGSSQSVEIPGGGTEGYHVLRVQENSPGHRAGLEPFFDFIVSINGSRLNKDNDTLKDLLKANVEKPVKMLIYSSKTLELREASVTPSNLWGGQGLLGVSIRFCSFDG

| binding result | Binder |
| --- | --- |
| no binding (tested: 1.9*10^-7M peptide) | NYIRTSEEGDFRHKSS (also: biotinylated (position not given here), also called JAM-CΔ) [biotinylated JAM-C control peptide ΔPDZbm, lacking the last three amino-acids] |

What follows are binders tested against T1, Grasp55 (Golgi reassembly-stacking …) (assay: peptide pull-down of KLN205 lysates, mass spectrometry).
From the text: As control, the same peptides, but deleted of the last three amino-acids known as the functional PDZ binding motif of JAM family members, were used.

| binding result | Binder |
| --- | --- |
| no binding | SKVTTMSENDFKHTKS (also: biotinylated (position not given here), also called JAM-BΔ) [biotinylated JAM-B control peptide, last 19 amino-acids deleted of the last three amino-acids] |

What follows are binders tested against T3, GST-PDZI′ recombinant Grasp55 protein (assay: HTRF competition against biotinylated JAM-C peptide).
Method: as §2

| fold increase in EC50 against GST-PDZI′+II′ and GST-GraspFL [fold] | Binder |
| --- | --- |
| 20 | NYIRTSEEGDFRHKSSFVI (also called JAM-C unlabelled peptide) [non-biotinylated (unlabelled) JAM-C peptide] |

Each binder was assayed against T1, Grasp55 (Golgi reassembly-stacking …) (assay: peptide pull-down of cell lysates, anti-GRASP55 blot).
From the text: as §1

| binding result | Binder |
| --- | --- |
| no binding | NYIRTSEEGDFRHKSS (also: biotinylated (position not given here), also called JAM-CΔ) [biotinylated JAM-C control peptide ΔPDZbm, lacking the last three amino-acids] |

These binders were tested against T4, GST-GRASP55 PDZ I+II (murine) (assay: ELISA, GST fusion on glutathione plate, biotinylated peptide).
T4 construct: also called PDZ I+II of Grasp55; PDZI+II (1-160)
Method: (§3) Ninety-six well plates coated with glutathione were incubated overnight with various GST fusion proteins. The plates were then washed, blocked and incubated with JAMs biotinylated peptides with or without PDZ binding motif. […] Results are expressed as Mean+/−SEM of Relative Unit of absorbance measured at 450 nm. […] One representative experiment is shown.
(§4) To set up ELISA test, various proteins of soluble GST-GRASP55 proteins were incubated on ninety-six-well plates (Nalge Nunc International) coated with glutathione. Plates were then washed and blocked with buffer containing PBS and 2% of bovine albumin for 2 hours. […] After three successive washes, streptavidin-HRP was added to reveal the various complexes, followed by a HRP substrate, tetramethylbenzidine (TMB). Absorbance (OD_{450 nm}) was determined on an ELISA POLARstar reader.

T4 sequence (chain, as listed by the source): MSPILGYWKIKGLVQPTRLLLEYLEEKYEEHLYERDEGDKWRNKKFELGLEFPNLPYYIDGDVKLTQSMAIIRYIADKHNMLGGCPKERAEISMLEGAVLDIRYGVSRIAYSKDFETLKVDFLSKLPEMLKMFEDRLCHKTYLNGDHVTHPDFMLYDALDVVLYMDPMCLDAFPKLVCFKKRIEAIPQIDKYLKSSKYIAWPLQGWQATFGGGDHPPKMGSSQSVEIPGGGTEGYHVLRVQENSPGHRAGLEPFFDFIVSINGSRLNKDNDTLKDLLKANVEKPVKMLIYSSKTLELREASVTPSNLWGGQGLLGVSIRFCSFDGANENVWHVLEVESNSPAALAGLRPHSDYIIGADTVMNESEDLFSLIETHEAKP

| binding result | Binder |
| --- | --- |
| no binding | NYIRTSEEGDFRHKSS (also: biotinylated (position not given here), also called JAM-CΔ) [biotinylated JAM-C control peptide ΔPDZbm, lacking the last three amino-acids] |

What follows are binders tested against T5, GST-GRASP55 PDZ I (murine) in the same assay as above.
T5 construct: also called PDZ I of Grasp55; PDZI (1-79)
Method: as §3, §4

T5 sequence (chain, as listed by the source): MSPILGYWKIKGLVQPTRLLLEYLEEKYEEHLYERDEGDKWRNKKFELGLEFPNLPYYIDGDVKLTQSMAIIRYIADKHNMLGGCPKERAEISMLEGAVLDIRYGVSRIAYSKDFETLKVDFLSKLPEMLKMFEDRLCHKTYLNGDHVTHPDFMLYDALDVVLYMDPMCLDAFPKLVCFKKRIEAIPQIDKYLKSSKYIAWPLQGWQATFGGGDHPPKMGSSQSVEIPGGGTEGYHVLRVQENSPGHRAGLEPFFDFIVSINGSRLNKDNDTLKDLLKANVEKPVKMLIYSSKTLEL

| binding result | Binder |
| --- | --- |
| no binding | B4 |

What follows are binders tested against T6, Grasp55 PDZII (80-160), yeast two-hybrid construct (murine, UniProt Q99JX3 80-160) (assay: yeast two-hybrid, growth on selective medium).
T6 construct: also called isolated second PDZ domain
From the text: (§5) The different GRASP55 constructs were cloned into pGBT9 GW vector (Ga14 DNA-binding domain fusion vector, Trp) as well in the pACT2 GW vector (Gal4 DNA-activation domain fusion vector, Leu) using the Gateway technology (Invitrogen). Plasmids were then co-transformed in AH109 yeast strain (/MATa, trp1-901, leu2-3, 112, ura3-52, his3-200, gal4/A, /gal80/A, /LYS2::GAL1//UAS//-GAL1//TATA//-HIS3, GAL2//UAS//-GAL2//TATA//-ADE2, URA3::MEL1//UAS//-MEL1//TATA//-lacZ, MEL1/) in accordance with the previously described transformation protocol (Chien et al. 1991. Proc Natl Acad Sci USA. 88:9578-82). Following co-transformation with the two vectors containing the different constructs (as well as the empty vector to test self activation), yeasts were plated onto Synthetic Complete (SC) medium minus Leucine (−L), minus Tryptophan (−W), minus Histidine (−H) and incubated at 30° C. for 4 to 5 days. All yeast media were prepared as previously described.
(§6) GST fusion proteins were produced and yeast two-hybrid assay was performed as previously described in example 1.

| binding result | Binder |
| --- | --- |
| binds | B5 |
| no binding | B6 |
| no binding | B7 |
| no binding | B8 |
| no binding | B9 |
| no binding | B10 |

The binders below were run against T7, Grasp55 FL, yeast two-hybrid construct (murine, UniProt Q99JX3 1-451) (assay: yeast two-hybrid, growth on selective medium).
T7 construct: Gal4 fusion expressed in yeast AH109; also called wt Grasp55
From the text: as §5, §6

| binding result | Binder |
| --- | --- |
| no binding | B6 |
| binds | B7 |
| no binding | B8 |
| no binding | B9 |
| binds | B10 |

The binders below were run against Grasp55 PDZI + II (1-160), yeast two-hybrid construct (murine, UniProt Q99JX3 1-160) (assay: yeast two-hybrid, growth on selective medium).
From the text: as §5, §6

| binding result | Binder |
| --- | --- |
| no binding | B5 |
| no binding | B6 |
| binds | B7 |
| no binding | B8 |
| no binding | B9 |
| binds | B10 |

These binders were tested against Grasp55 PDZII′ (108-208), yeast two-hybrid construct (murine, UniProt Q99JX3 108-208) (assay: yeast two-hybrid, growth on selective medium).
From the text: as §5, §6

| binding result | Binder |
| --- | --- |
| no binding | B5 |
| no binding | B11 |
| no binding | B9 |
| no binding | B10 |

What follows are binders tested against Grasp55 PDZI′ + II′ (1-208), yeast two-hybrid construct (murine, UniProt Q99JX3 1-208) (assay: yeast two-hybrid, growth on selective medium).
From the text: as §5, §6

| binding result | Binder |
| --- | --- |
| no binding | B5 |
| no binding | B9 |
| binds | B10 |

The binders below were run against T8, Grasp55 PDZI (1-79), yeast two-hybrid construct (murine, UniProt Q99JX3 1-79) (assay: yeast two-hybrid, growth on selective medium).
T8 construct: also called isolated first PDZ domain
From the text: as §5, §6

| binding result | Binder |
| --- | --- |
| no binding | B5 |
| no binding | B11 |
| no binding | B6 |
| no binding | B7 |
| no binding | B8 |
| no binding | B9 |
| no binding | B10 |

These binders were tested against Grasp55 PDZI′ (1-107), yeast two-hybrid construct (murine, UniProt Q99JX3 1-107) (assay: yeast two-hybrid, growth on selective medium).
From the text: as §5, §6

| binding result | Binder |
| --- | --- |
| no binding | B5 |
| no binding | B11 |
| no binding | B9 |
| binds | B10 |
